Source: patent US20250289893A1 (OXFORD UNIVERSITY INNOVATION, published 2025)
Changes are numbered by the printed parent chain.

B1: 116 (VR12117) (antibody, V domains shown)
VH: QSVEESGGRLVTPGTPLTLTCTVSGFSLSNYAMSWVRQAPGKGLEWIGIIYTTGFTYYASWVKGRFTISKTSTTVDLKITSPTTEDTATYFCARGLATYVSPPTRLDLWGQGTLVTVSS
VL: AQVLTQTPSPVSAAVGGTVTINCQASQSIYNSKNLAWYQQKPGQPPKLLIYSASTLASGVPSRFKGSGSGTQFTLTISDLECDDAATYYCQGEFSCSSVDCATFGGGTEVVVK
notes: also called OX116
B2: 77A (VR11851) (antibody, V domains shown)
VH: QSVEESGGRLVTPGTPLTLTCTVSGFSLSSYAMSWVRQAPGKGLEWIGIISSSGTTYYASWAKGRFTISKTSTTVDLKITSPTTEDTATYFCARVDYYSSGWGGLWGPGTLVTVSS
VL: AVEMTQTPASMSAAVGGTVTIKCQASEDIYSNLAWYQQKPGQPPKLLIYGASTLASGVPSRFKGSGSGTEYTLTISGVQCDDAATYYCQCTYDTSSYGNTFGGGTEMVVE
notes: also called OX77a; antibody 77a
B3: 111 (VR12113) (antibody, V domains shown)
VH: QSVEESGGRLVTPGTPLTLTCTASGFSLSTYAMSWVRQAPGKGLEWIGIISSSGSTYYASWAKGRFTISKTSTTVDLKITSPTTEDTATYFCARETWYWLDLWGQGTLVTVSS
VL: B2 VL with M11V, K22N, T91A, T94S, N99T, T100P, M107V, E110K
notes: also called OX111
B4: 110 (VR12112) (antibody, V domains shown)
VH: QSVEESGGRLVTPGTPLTLTCTVSGFSLSSYAMIWVRQAPGKGLEWIGIINSSDNTHYATWAKGRFTISKTSTTVDLKITSPTTEDTATYFCARDPYDYGYGWYFDLWGPGTLVTVSS
VL: AQVLTQTPSPVSAAVGGTVTINCQASQSVFNNKNLAWYQQKPGQPPKLLIYKASTLASGVSSRFKGSGSGTQFALTISGVQCDDAATYYCQGEFSCSSTDCVTFGGGTEVVVK
notes: also called OX110; antibody 110

What follows are binders tested against Chinese variant CD1a protein (human) (UniProt P06126) (assay: ELISA, 10 µg/ml antibody).
Chain of Chinese variant CD1a protein (human) (P06126 18-295, change not shown): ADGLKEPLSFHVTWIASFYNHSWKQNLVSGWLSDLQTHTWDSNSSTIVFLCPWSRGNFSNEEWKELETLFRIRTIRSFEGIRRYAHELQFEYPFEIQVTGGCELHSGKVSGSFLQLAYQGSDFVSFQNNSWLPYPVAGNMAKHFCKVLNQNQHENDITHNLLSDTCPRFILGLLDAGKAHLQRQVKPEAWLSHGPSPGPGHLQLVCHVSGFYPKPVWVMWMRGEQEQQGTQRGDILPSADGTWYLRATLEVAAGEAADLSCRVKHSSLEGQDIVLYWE

First: B1
Second: B2
The Optical Density (OD) of the first is higher: 1.51 OD for the first, 0.99 OD for the second.

Compared with B3, B4 is higher in Optical Density (OD): 1.41 OD for the first, 1.75 OD for the second.

What follows are binders tested against Chinese variant CD1a protein (human) (UniProt P06126) (assay: ELISA, 0.01 µg/ml antibody).

First: B1
Second: B2
The Optical Density (OD) of the first is higher: 1.47 OD for the first, 0.79 OD for the second.

Compared with B3, B4 is higher in Optical Density (OD): 1.33 OD for the first, 1.4 OD for the second.

Target: T1, Cynomolgus monkey CD1a protein (Cynomolgus monkey)
T1 chain: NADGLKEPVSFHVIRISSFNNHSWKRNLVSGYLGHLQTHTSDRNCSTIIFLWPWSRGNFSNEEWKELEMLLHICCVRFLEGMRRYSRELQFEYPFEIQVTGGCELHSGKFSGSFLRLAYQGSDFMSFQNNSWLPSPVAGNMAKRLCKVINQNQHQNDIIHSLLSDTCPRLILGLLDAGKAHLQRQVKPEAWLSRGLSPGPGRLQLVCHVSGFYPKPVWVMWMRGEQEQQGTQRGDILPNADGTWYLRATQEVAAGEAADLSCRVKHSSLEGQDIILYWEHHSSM
Assay: ELISA, 1 µg/ml antibody

First: B1
Second: B2
The “Optical Density (OD)” value of the first is lower: 0.14 OD for the first, 0.43 OD for the second.

Going from B3 to B4, the “Optical Density (OD)” value rises from 0.69 OD to 0.94 OD.

Each binder was assayed against T2, chimeric CD1a pool B protein [human CD1a lipid binding domain, mouse CD1d Ig domain] (human; mouse, UniProt P06126 18-201; P11609 205-297, limits assumed) (assay: ELISA, 0.1 µg/ml antibody).
T2 sequence (P06126 other isoform, or with tags, fused parts or gaps mutant limits assumed): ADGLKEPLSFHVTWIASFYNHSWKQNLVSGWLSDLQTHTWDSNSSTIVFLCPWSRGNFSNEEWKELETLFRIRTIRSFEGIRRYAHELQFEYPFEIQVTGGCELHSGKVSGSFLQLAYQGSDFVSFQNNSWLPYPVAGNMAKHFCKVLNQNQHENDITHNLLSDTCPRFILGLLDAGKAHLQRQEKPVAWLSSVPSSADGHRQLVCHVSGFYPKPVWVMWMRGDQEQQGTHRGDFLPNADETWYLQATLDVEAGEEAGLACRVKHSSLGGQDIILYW
Method: (§1) CD1a-specific antibodies were identified by ELISA. […] 20 μl/well of peroxidase-conjugated goat anti-species IgG Fc-specific F(ab′)2 fragment (Jackson ImmunoResearch), diluted 1:5000 in block buffer was added and incubated at room temperature for 1 hour, followed by washing with wash buffer.
(§2) The antibodies were titrated through a dilution series and compared to a control rabbit IgG antibody. […] Data shown for purified antibodies.

B1 and B2 are the same in “Optical Density (OD)” value: 1.25 OD for the first, 1.25 OD for the second.

First: B3
Second: B4
The “Optical Density (OD)” value of the first is higher: 1.25 OD for the first, 1.02 OD for the second.

Target: T1, Cynomolgus monkey CD1a protein
Assay: ELISA, 0.1 µg/ml antibody

Going from B1 to B2, the “Optical Density (OD)” value rises from 0.07 OD to 0.24 OD.

First: B3
Second: B4
The “Optical Density (OD)” value of the first is higher: 0.66 OD for the first, 0.53 OD for the second.

The binders below were run against T2, chimeric CD1a pool B protein [human … (assay: ELISA, 0.316 µg/ml antibody).
Method: as §1, §2

Compared with B1, B2 is lower in “Optical Density (OD)” value: 1.32 OD for the first, 1.28 OD for the second.

Compared with B3, B4 is lower in “Optical Density (OD)” value: 1.32 OD for the first, 1.24 OD for the second.

What follows are binders tested against T3, human CD1a protein (pool B) (human, UniProt P06126 18-295, limits assumed) (assay: ELISA, 0.0316 µg/ml antibody).
T3 construct: Recombinant protein of the ELISA (coated) and the Biacore T200 titration; whole entry named; also called human CD1a pool B; full length CD1a
T3 sequence (P06126 18-295 limits assumed): as the sequence (P06126 18-295, change not shown) above
Method: as §1
The antibodies were titrated through a dilution series and compared to a control rabbit IgG antibody.

Compared with B1, B2 is higher in “Optical Density (OD)” value: 0.95 OD for the first, 1.25 OD for the second.

Going from B3 to B4, the “Optical Density (OD)” value falls from 1.1 OD to 0.81 OD.

These binders were tested against T2, chimeric CD1a pool B protein [human … (assay: ELISA, 0.0316 µg/ml antibody).
Method: as §1, §2

First: B1
Second: B2
The “Optical Density (OD)” value of the first is higher: 1.13 OD for the first, 1.09 OD for the second.

Going from B3 to B4, the “Optical Density (OD)” value falls from 1.19 OD to 0.73 OD.

The binders below were run against T4, human CD1a expressed on cells (human, UniProt P06126 17-327; P61769 21-119) (assay: flow cytometry, C1R cells, 0.1 µg/ml antibody).
T4 construct: also called HEK - CD1a; C1R - CD1a
Method: (§3) Binding to proteins expressed on HEK, C1R and MOLT4 cell lines was assessed. […] The C1R-CD1a, C1R-empty vector and MOLT4 cell lines were washed in 1×PBS on the day required. All cell lines were counted and resuspended in 1×PBS and then stained for 30 minutes at 37° C. using the DiI or DiO cellular stains (Invitrogen). Cells were washed with flow cytometry buffer (1% bovine serum albumin, 2 mM EDTA and 0.1% sodium azide in PBS) before mixing 2 DiI-stained and DiO-stained populations together. The cells (20 μl/well) were then added to dilutions of antibody sample (B cell culture supernatant, TAP supernatant, clone supernatant, purified antibody solution) (20 μl/well) and incubated for 1 hour at 4° C. in a flow cytometry assay plate, before being washed with flow cytometry buffer. 10 μl/well of Alexafluor647-conjugated goat anti-species IgG Fc-specific F(ab′)2 fragment (Jackson ImmunoResearch), diluted 1:2500 in flow cytometry buffer, was added and incubated at 4° C. for 30 minutes, followed by washing with wash buffer. The fluorescence intensity was then measured on an iQue screener PLUS.
(§4) Binding was quantified as fold change in fluorescence intensity geomean over background assessed by flow cytometry.

Compared with B1, B2 is lower in “Fluorescence Intensity Geomean (normalized to background)” value: 27 fold over background for the first, 16.4 fold over background for the second.

First: B3
Second: B4
The “Fluorescence Intensity Geomean (normalized to background)” value of the first is lower: 25.4 fold over background for the first, 25.8 fold over background for the second.

These binders were tested against T4, human CD1a expressed on cells (assay: flow cytometry, C1R cells, 100 µg/ml antibody).
Method: as §3, §4

Compared with B1, B2 is lower in “Fluorescence Intensity Geomean (normalized to background)” value: 11.9 fold over background for the first, 0.9 fold over background for the second.

Compared with B3, B4 is lower in “Fluorescence Intensity Geomean (normalized to background)” value: 7.3 fold over background for the first, 4.8 fold over background for the second.

These binders were tested against T4, human CD1a expressed on cells (assay: flow cytometry, C1R cells, 31.6 µg/ml antibody).
Method: as §3, §4

Going from B1 to B2, the “Fluorescence Intensity Geomean (normalized to background)” value falls from 13.7 fold over background to 1.3 fold over background.

Going from B3 to B4, the “Fluorescence Intensity Geomean (normalized to background)” value falls from 7 fold over background to 6.2 fold over background.

What follows are binders tested against T4, human CD1a expressed on cells (assay: flow cytometry, HEK-293 cells, 1 µg/ml antibody).
Method: as §3
(§5) HEK-293 cells were transiently transfected with human CD1a, CD1b, CD1c or CD1d and co-transfected with human β2M.

First: B1
Second: B2
The “Fluorescence Intensity Geomean (normalized to background)” value of the first is higher: 48.2 fold over background for the first, 41.9 fold over background for the second.

First: B3
Second: B4
The “Fluorescence Intensity Geomean (normalized to background)” value of the first is lower: 42 fold over background for the first, 49.2 fold over background for the second.

Each binder was assayed against T5, human CD1b expressed on HEK-293 cells (human, UniProt P29016 18-333; P61769 21-119) (assay: flow cytometry, HEK-293 cells, 1 µg/ml antibody).
T5 construct: also called HEK - CD1b
Method: as §3, §5

B1 and B2 are the same in “Fluorescence Intensity Geomean (normalized to background)” value: 1.1 fold over background for the first, 1.1 fold over background for the second.

Compared with B3, B4 is higher in “Fluorescence Intensity Geomean (normalized to background)” value: 1 fold over background for the first, 1.1 fold over background for the second.

What follows are binders tested against T6, human CD1c expressed on HEK-293 cells (human, UniProt P29017 18-333; P61769 21-119) (assay: flow cytometry, HEK-293 cells, 1 µg/ml antibody).
T6 construct: also called HEK - CD1c
Method: as §3, §5

Compared with B1, B2 is lower in “Fluorescence Intensity Geomean (normalized to background)” value: 1.1 fold over background for the first, 1 fold over background for the second.

B3 and B4 are the same in “Fluorescence Intensity Geomean (normalized to background)” value: 1.1 fold over background for the first, 1.1 fold over background for the second.

These binders were tested against T7, human CD1d expressed on HEK-293 cells (human, UniProt P15813 20-335; P61769 21-119) (assay: flow cytometry, HEK-293 cells, 1 µg/ml antibody).
T7 construct: also called HEK - CD1d
Method: as §3, §5

B1 and B2 are the same in “Fluorescence Intensity Geomean (normalized to background)” value: 1 fold over background for the first, 1 fold over background for the second.

B3 and B4 are the same in “Fluorescence Intensity Geomean (normalized to background)” value: 1.1 fold over background for the first, 1.1 fold over background for the second.

What follows are binders tested against T4, human CD1a expressed on cells (assay: flow cytometry, HEK-293 cells, 10 µg/ml antibody).
Method: as §3, §5

Going from B1 to B2, the “Fluorescence Intensity Geomean (normalized to background)” value rises from 12.6 fold over background to 13.7 fold over background.

Going from B3 to B4, the “Fluorescence Intensity Geomean (normalized to background)” value rises from 11.1 fold over background to 15.7 fold over background.

What follows are binders tested against T5, human CD1b expressed on HEK-293 cells (assay: flow cytometry, HEK-293 cells, 10 µg/ml antibody).
Method: as §3, §5

Going from B1 to B2, the “Fluorescence Intensity Geomean (normalized to background)” value rises from 1 fold over background to 1.1 fold over background.

B3 and B4 are the same in “Fluorescence Intensity Geomean (normalized to background)” value: 1.1 fold over background for the first, 1.1 fold over background for the second.

What follows are binders tested against T6, human CD1c expressed on HEK-293 cells (assay: flow cytometry, HEK-293 cells, 10 µg/ml antibody).
Method: as §3, §5

First: B1
Second: B2
The “Fluorescence Intensity Geomean (normalized to background)” value of the first is higher: 1.1 fold over background for the first, 0.9 fold over background for the second.

B3 and B4 are the same in “Fluorescence Intensity Geomean (normalized to background)” value: 1 fold over background for the first, 1 fold over background for the second.

These binders were tested against T7, human CD1d expressed on HEK-293 cells (assay: flow cytometry, HEK-293 cells, 10 µg/ml antibody).
Method: as §3, §5

First: B1
Second: B2
The “Fluorescence Intensity Geomean (normalized to background)” value of the first is higher: 1.1 fold over background for the first, 1 fold over background for the second.

First: B3
Second: B4
The “Fluorescence Intensity Geomean (normalized to background)” value of the first is higher: 1.1 fold over background for the first, 1 fold over background for the second.

The binders below were run against T4, human CD1a expressed on cells (assay: flow cytometry, HEK-293 cells, 0.1 µg/ml antibody).
Method: as §3, §5

First: B1
Second: B2
The “Fluorescence Intensity Geomean (normalized to background)” value of the first is lower: 26.7 fold over background for the first, 43.8 fold over background for the second.

Compared with B3, B4 is lower in “Fluorescence Intensity Geomean (normalized to background)” value: 23.1 fold over background for the first, 20.2 fold over background for the second.

What follows are binders tested against T5, human CD1b expressed on HEK-293 cells (assay: flow cytometry, HEK-293 cells, 0.1 µg/ml antibody).
Method: as §3, §5

B1 and B2 are the same in “Fluorescence Intensity Geomean (normalized to background)” value: 1 fold over background for the first, 1 fold over background for the second.

B3 and B4 are the same in “Fluorescence Intensity Geomean (normalized to background)” value: 1 fold over background for the first, 1 fold over background for the second.

The binders below were run against T6, human CD1c expressed on HEK-293 cells (assay: flow cytometry, HEK-293 cells, 0.1 µg/ml antibody).
Method: as §3, §5

Going from B1 to B2, the “Fluorescence Intensity Geomean (normalized to background)” value falls from 1 fold over background to 0.9 fold over background.

B3 and B4 are the same in “Fluorescence Intensity Geomean (normalized to background)” value: 1 fold over background for the first, 1 fold over background for the second.

The binders below were run against T7, human CD1d expressed on HEK-293 cells (assay: flow cytometry, HEK-293 cells, 0.1 µg/ml antibody).
Method: as §3, §5

Going from B1 to B2, the “Fluorescence Intensity Geomean (normalized to background)” value falls from 1.1 fold over background to 0.9 fold over background.

B3 and B4 are the same in “Fluorescence Intensity Geomean (normalized to background)” value: 1 fold over background for the first, 1 fold over background for the second.

What follows are binders tested against T7, human CD1d expressed on HEK-293 cells (assay: flow cytometry, HEK-293 cells, 31.6 µg/ml antibody).
Method: as §3, §5

B1 and B2 are the same in “Fluorescence Intensity Geomean (normalized to background)” value: 1 fold over background for the first, 1 fold over background for the second.

Going from B3 to B4, the “Fluorescence Intensity Geomean (normalized to background)” value rises from 1 fold over background to 1.1 fold over background.

The binders below were run against T4, human CD1a expressed on cells (assay: flow cytometry, MOLT4 cells, 0.0316 µg/ml antibody).
Method: CD1a-specific antibodies were identified by flow cytometry. Binding to proteins expressed on HEK, C1R and MOLT4 cell lines was assessed. […] The C1R-CD1a, C1R-empty vector and MOLT4 cell lines were washed in 1×PBS on the day required. All cell lines were counted and resuspended in 1×PBS and then stained for 30 minutes at 37° C. using the DiI or DiO cellular stains (Invitrogen). Cells were washed with flow cytometry buffer (1% bovine serum albumin, 2 mM EDTA and 0.1% sodium azide in PBS) before mixing 2 DiI-stained and DiO-stained populations together. The cells (20 μl/well) were then added to dilutions of antibody sample (B cell culture supernatant, TAP supernatant, clone supernatant, purified antibody solution) (20 μl/well) and incubated for 1 hour at 4° C. in a flow cytometry assay plate, before being washed with flow cytometry buffer. 10 μl/well of Alexafluor647-conjugated goat anti-species IgG Fc-specific F(ab′)2 fragment (Jackson ImmunoResearch), diluted 1:2500 in flow cytometry buffer, was added and incubated at 4° C. for 30 minutes, followed by washing with wash buffer. The fluorescence intensity was then measured on an iQue screener PLUS.
as §4

Going from B1 to B2, the “Fluorescence Intensity Geomean (normalized to background)” value falls from 14.9 fold over background to 8.7 fold over background.

Going from B3 to B4, the “Fluorescence Intensity Geomean (normalized to background)” value falls from 12.4 fold over background to 1.6 fold over background.
